Experiments:
[1] = target: T1, HDAC1 of mouse Treg cells (mouse, UniProt O09106 1-482); experiment: immunoprecipitation of endogenous Foxp3 from Ikzf1-expressing mouse Treg cells, Simple Western
T1 construct: also called HDAC1 protein

[2] = target: T2, Flag-IkΔE5 (Mus musculus, UniProt Q03267 1-517, limits assumed); experiment: co-immunoprecipitation with anti-Flag-M2 antibody from HEK293T lysate, Western blot with anti-c-Myc
T2 construct: Forcedly expressed in HEK293T cells; also called ΔE5 variant; Ikzf1ΔE5; not shown: Flag tag
T2 sequence (Q03267 other isoform, or with tags, fused parts or gaps mutant limits assumed): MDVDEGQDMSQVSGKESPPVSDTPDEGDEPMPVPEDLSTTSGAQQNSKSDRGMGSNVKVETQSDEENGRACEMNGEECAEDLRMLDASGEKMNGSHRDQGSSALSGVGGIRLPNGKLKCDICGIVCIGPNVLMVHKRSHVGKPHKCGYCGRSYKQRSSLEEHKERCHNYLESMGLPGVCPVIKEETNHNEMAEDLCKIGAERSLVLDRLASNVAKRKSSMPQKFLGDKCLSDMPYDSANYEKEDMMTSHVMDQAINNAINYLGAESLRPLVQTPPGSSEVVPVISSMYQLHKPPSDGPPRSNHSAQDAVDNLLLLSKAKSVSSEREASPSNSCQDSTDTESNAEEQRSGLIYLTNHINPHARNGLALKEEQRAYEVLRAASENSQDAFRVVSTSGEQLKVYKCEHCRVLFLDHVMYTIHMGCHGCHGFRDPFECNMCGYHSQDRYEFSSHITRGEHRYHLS

T1 sequence (O09106 whole entry): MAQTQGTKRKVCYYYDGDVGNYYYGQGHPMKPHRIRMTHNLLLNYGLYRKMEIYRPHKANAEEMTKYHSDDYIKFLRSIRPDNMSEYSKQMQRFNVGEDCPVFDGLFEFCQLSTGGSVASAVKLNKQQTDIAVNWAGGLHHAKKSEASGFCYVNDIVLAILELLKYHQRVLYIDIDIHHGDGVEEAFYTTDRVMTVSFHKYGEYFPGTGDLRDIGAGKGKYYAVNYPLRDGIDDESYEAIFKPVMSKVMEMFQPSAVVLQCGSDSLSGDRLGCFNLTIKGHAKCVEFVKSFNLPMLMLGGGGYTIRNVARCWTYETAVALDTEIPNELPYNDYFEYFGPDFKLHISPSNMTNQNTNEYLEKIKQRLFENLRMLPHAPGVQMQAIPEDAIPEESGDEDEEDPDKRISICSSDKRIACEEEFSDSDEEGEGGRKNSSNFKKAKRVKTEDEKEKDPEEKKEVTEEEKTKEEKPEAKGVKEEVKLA

Row | binding result [1] | binding result [2] | Binder
1 | binds | – | endogenous Foxp3 of mouse Treg cells (other, UniProt Q99JB6 1-429, looked up, Immunoprecipitated with anti-Foxp3 antibody from Treg cell lysates) MPNPRPAKPMAPSLALGPSPGVLPSWKTAPKGSELLGTRGSGGPFQGRDLRSGAHTSSSLNPLPPSQLQLPTVPLVMVAPSGARLGPSPHLQALLQDRPHFMHQLSTVDAHAQTPVLQVRPLDNPAMISLPPPSAATGVFSLKARPGLPPGINVASLEWVSREPALLCTFPRSGTPRKDSNLLAAPQGSYPLLANGVCKWPGCEKVFEEPEEFLKHCQADHLLDEKGKAQCLLQREVVQSLEQQLELEKEKLGAMQAHLAGKMALAKAPSVASMDKSSCCIVATSTQGSVLPAWSAPREAPDGGLFAVRRHLWGSHGNSSFPEFFHNMDYFKYHNMRPPFTYATLIRWAILEAPERQRTLNEIYHWFTRMFAYFRNHPATWKNAIRHNLSLHKCFVRVESEKGAVWTVDEFEFRKKRSQRPNKCSNPCP
2 | – | no binding | Myc-Foxp3 (other, UniProt Q99JB6 1-429, looked up, Forcedly expressed in HEK293T cells; not shown: Myc tag) MPNPRPAKPMAPSLALGPSPGVLPSWKTAPKGSELLGTRGSGGPFQGRDLRSGAHTSSSLNPLPPSQLQLPTVPLVMVAPSGARLGPSPHLQALLQDRPHFMHQLSTVDAHAQTPVLQVRPLDNPAMISLPPPSAATGVFSLKARPGLPPGINVASLEWVSREPALLCTFPRSGTPRKDSNLLAAPQGSYPLLANGVCKWPGCEKVFEEPEEFLKHCQADHLLDEKGKAQCLLQREVVQSLEQQLELEKEKLGAMQAHLAGKMALAKAPSVASMDKSSCCIVATSTQGSVLPAWSAPREAPDGGLFAVRRHLWGSHGNSSFPEFFHNMDYFKYHNMRPPFTYATLIRWAILEAPERQRTLNEIYHWFTRMFAYFRNHPATWKNAIRHNLSLHKCFVRVESEKGAVWTVDEFEFRKKRSQRPNKCSNPCP
